Measurements reported in article PMC4919432.

Key:
[1] = target: Tel1 (yeast (budding yeast)) (UniProt P38110); test: SEC; Tel1 on Superose 6 Increase 5/150 GL, 0.1 ml/min; 50 mM HEPES-KOH pH 7.4, 200 mM KCl, 10% glycerol, 0.1% Tween 20, 0.02% C12E10, 1 mM EDTA, 3 mM DTT; size against Bio-Rad gel filtration standards
[2] = target: Tel1 (yeast (budding yeast)) (UniProt P38110); test: negative stain electron microscopy, single-particle reconstruction; 20 nM Tel1 in 50 mM HEPES pH 7.4, 150 mM NaCl, 5% glycerol, 1 mM EDTA, 1 mM DTT; 2% uranyl acetate; C2 symmetry applied; 21 Å (FSC 0.5)
[3] = target: Tel1 (yeast (budding yeast)) (UniProt P38110); test: cryo-EM structure; 20 nM Tel1 in 50 mM HEPES-KOH pH 7.4, 210 mM KCl, 1% glycerol, 0.02% Tween 20, 0.002% Nonidet P-40, 1 mM EDTA, 0.5 mM EGTA, 1 mM DTT, 0.5 mM MgCl2; holey carbon grids with a thin carbon layer; 19.2 Å
[4] = target: Mec1·Ddc2 complex (yeast (budding yeast)) (UniProt P38111); test: negative stain electron microscopy, single-particle reconstruction; 70 nM Mec1·Ddc2 in 30 mM HEPES pH 7.4, 200 mM NaCl, 5% glycerol, 0.5 mM EDTA, 1 mM DTT; 2% uranyl acetate; C2 symmetry applied; 22.5 Å
[5] = target: Mec1·Ddc2 complex (yeast (budding yeast)) (UniProt P38111); test: SEC; Mec1·Ddc2 on Superose 6 HR 10/30, 0.3 ml/min; 50 mM HEPES-KOH pH 7.4, 200 mM KCl, 10% glycerol, 0.1% Tween 20, 0.01% Nonidet P-40, 1 mM EDTA, 1 mM EGTA, 2 mM DTT; size against Bio-Rad gel filtration standards; peak fractions on SDS-PAGE

| stoichiometry N [1] | stoichiometry N [2] | stoichiometry N [3] | percent of particles of the size of the dimer [4] [%] | stoichiometry N [4] | stoichiometry N [5] | Substance |
| --- | --- | --- | --- | --- | --- | --- |
| 2 | 2 | 2 | – | – | – | Tel1, P38110 1-2787 |
| – | – | – | 81 | 2 | 2 | Mec1·Ddc2 complex, P38111 1-2368; Q04377 1-747 |
